One substance from patent US11773160 can be followed below.

Assay [1] has as its target IL-2R on murine splenocytes (C57BL/6). In words: cell-based or functional assay.
Assay [2] has as its target trimeric IL-2 receptor on HEK-Blue IL-2 reporter cells (UniProt P01589). The assay is described as follows: cell-based or functional assay.

trimeric IL-2 receptor on HEK-Blue IL-2 reporter cells, sequence (P01589 22-272 limits assumed, chain 1 of 3): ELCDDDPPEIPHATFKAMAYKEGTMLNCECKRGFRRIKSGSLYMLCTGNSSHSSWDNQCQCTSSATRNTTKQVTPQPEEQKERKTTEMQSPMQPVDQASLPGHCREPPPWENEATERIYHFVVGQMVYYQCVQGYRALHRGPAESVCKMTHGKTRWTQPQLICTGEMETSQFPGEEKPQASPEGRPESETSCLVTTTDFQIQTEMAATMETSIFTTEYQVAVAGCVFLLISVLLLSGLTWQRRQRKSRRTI
trimeric IL-2 receptor on HEK-Blue IL-2 reporter cells, sequence (P14784 27-551 limits assumed, chain 2 of 3, further chain): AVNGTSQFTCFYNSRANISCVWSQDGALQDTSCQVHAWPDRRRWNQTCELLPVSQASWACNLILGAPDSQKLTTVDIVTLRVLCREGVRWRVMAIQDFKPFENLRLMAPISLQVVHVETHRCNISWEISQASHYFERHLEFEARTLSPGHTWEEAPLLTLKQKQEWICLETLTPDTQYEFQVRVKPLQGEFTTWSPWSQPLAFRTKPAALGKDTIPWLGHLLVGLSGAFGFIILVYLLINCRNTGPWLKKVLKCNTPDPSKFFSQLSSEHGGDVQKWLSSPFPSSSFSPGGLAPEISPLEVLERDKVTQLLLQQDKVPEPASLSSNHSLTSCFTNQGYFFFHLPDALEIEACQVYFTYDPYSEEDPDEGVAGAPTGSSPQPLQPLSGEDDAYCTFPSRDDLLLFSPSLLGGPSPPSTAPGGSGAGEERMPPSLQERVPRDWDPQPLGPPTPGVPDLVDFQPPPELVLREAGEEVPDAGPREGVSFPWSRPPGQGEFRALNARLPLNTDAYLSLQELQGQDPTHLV
trimeric IL-2 receptor on HEK-Blue IL-2 reporter cells, sequence (P31785 23-369 limits assumed, chain 3 of 3, further chain): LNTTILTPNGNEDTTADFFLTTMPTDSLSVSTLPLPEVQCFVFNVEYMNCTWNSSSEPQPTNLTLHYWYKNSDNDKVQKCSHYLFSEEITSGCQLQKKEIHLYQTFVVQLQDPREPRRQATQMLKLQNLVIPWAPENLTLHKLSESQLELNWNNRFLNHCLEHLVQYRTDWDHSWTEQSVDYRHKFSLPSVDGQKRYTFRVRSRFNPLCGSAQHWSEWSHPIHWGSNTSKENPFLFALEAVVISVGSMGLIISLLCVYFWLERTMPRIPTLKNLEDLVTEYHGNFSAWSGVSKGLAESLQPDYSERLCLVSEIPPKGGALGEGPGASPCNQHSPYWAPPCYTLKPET

In assay [1], “Proleukin (aldesleukin) (from UniProt P60568 22-153) (ligand)” had an EC50 CD8 cells (nM), pSTAT5 MFI of 4.1 nM; an EC50 NK cells (nM), pSTAT5 MFI of 1.4 nM; an EC50 Treg cells (nM), pSTAT5 MFI below 0.016 nM. The substance further returned an EC50 (M), SEAP of HEK-Blue IL-2 reporter cells in assay [2] of 4.28e-12 M.
